# Legend:
# [1] = biological target: Fc gamma receptors on bovine alveolar macrophages; assay: cell-based or functional assay
# [2] = biological target: recombinant bovine FcRn (bovine) (UniProt F6R592); assay: SPR Biacore, bFcRn on SA sensor, pH 7.4, 25 C
# [3] = biological target: recombinant bovine Fcg2R (bovine); assay: SPR Biacore, bFcg2R amine-coupled on CM5, pH 7.4, 15 C
# [4] = biological target: recombinant bovine FcRn (bovine) (UniProt F6R592); assay: SPR Biacore, bFcRn on SA sensor, pH 6, 25 C
# [5] = biological target: recombinant bovine FcRn (bovine) (UniProt F6R592); assay: SPR Biacore, bFcRn on SA sensor, pH 7.4, 25 C; remark: listed apart in the source
# [6] = biological target: recombinant bovine FcRn (bovine) (UniProt F6R592); assay: SPR Biacore, bFcRn, pH 6; against bIgG1a and bIgG3a mAbs
# [7] = biological target: recombinant bovine FcRn (bovine) (UniProt F6R592); assay: SPR Biacore, bFcRn on SA sensor, pH 6, 25 C; remark: listed apart in the source
# Chain of recombinant bovine FcRn (bovine) (chain, as listed by the source, chain 1 of 2): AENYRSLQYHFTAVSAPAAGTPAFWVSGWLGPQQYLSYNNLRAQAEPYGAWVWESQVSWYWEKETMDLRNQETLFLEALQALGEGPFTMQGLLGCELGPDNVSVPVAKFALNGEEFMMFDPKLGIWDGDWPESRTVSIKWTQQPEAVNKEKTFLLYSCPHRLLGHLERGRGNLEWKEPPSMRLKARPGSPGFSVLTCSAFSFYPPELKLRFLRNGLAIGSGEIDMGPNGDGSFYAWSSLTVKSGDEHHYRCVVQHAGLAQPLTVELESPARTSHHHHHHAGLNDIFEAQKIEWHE
# Chain of recombinant bovine FcRn (bovine) (P01888 21-118, chain 2 of 2): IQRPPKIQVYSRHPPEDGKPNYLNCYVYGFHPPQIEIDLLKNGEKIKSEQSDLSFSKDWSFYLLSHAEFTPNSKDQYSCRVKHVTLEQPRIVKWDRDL
# Chain of recombinant bovine Fcg2R (bovine) (main, as listed by the source): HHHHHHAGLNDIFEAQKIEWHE
substance,measurement,setting,value
CTLA4 Fc bIgG1a (from UniProt Q9XSI1 36-161) (Fc fusion),ADCP EC50 Value,[1],0.003 µg/mL
CTLA4 Fc bIgG3a (from UniProt Q9XSI1 36-161) (Fc fusion),ADCP EC50 Value,[1],0.029 µg/mL
CTLA4bG2a (from UniProt Q9XSI1 36-161) (Fc fusion),ADCP EC50 Value,[1],0.014 µg/mL
bIgG2a wildtype mAb (antibody),Kd,[2],147 nM
same,Kd,[3],13.3 nM
same,Kd,[4],0.254 nM
same,Kd,[5],131 nM
same,fold higher affinity than bIgG1a and bIgG3a,[6],10 fold
same,Kd,[7],3.06 nM

# Source: US20230416410A1
